This experiment addresses human ribosomal stalk protein P2 lacking the last 16 amino acids (P2ΔC) (human) (UniProt P05387). The experiment in a line: native MS.

As a reminder, the stoichiometry N is a count of units in the complex or per binding partner. The substance “human ribosomal stalk protein P2 lacking the last 16 amino acids (P2ΔC) (from UniProt P05387 1-99) (domain or fragment)” yielded a stoichiometry N of 2.

Values taken from article PMC5514047.
